Laboratory results as given in publication PMC7021899, “N-terminal domain of the architectural protein CTCF has similar structural organization and ability to self-association in bilaterian organisms” (Scientific Reports, 2020).
Values belong to the molecule of their own block, whether it stands above or below them.

Experiments:
[1] = molecular target: N-terminal domain of Drosophila virilis CTCF (1-144 aa), without Thioredoxin (Drosophila virilis); assay: SAXS; BM29 BioSAXS beamline (ESRF), 277 K, at least two concentrations; molecular mass from extrapolated I0 and protein standards
[2] = molecular target: Thioredoxin-tagged N-terminal domain of Drosophila virilis CTCF (1-144 aa) (Drosophila virilis); assay: cross-linking; Thioredoxin-tagged NTDs, increasing concentrations of glutaraldehyde
[3] = molecular target: the molecule itself; assay: as above
[4] = molecular target: the molecule itself; assay: SAXS; BM29 BioSAXS beamline (ESRF), 277 K, at least two concentrations; molecular mass from extrapolated I0 and protein standards

B1: Thioredoxin-tagged N-terminal domain of Drosophila melanogaster CTCF (1-163 aa) (domain or fragment, UniProt Q9VS55 1-163, looked up)
chain: MPRRTKKDEDPEDLQTFLNNFHKEIEGNSDEKVVNTILEAISAEAIDLDENGAEAGGSKPMEEAEADLDHAEEAEEEEEDDEDKYFIDDEGNCYIKTTPKKQKELQKKLKQAAAKPGKATRSVVSTATNKSINLRPAKSTPKATTSKPPPEPKAISVRPARAA
notes: CTCF, Drosophila melanogaster, N-terminal domain, residues 1-163; also called dmCTCF NTD; Thioredoxin-tagged Drosophila CTCF NTD
stoichiometry N [3]: 2

B2: N-terminal domain of Drosophila melanogaster CTCF (1-163 aa), without Thioredoxin (domain or fragment, UniProt Q9VS55 1-163, looked up)
chain: B1 chain
notes: Modified pET32a(+) with TEV-cleavable Thioredoxin-6xHis-tag. 'Without Thioredoxin' is said for SEC; for SAXS and DLS the tag state is inferred from the printed monomer mass (18 kDa); also called dmCTCF NTD; dmCTCF-NTD
stoichiometry N [4]: 4

Continued, values first:

stoichiometry N [1]: 2
Molecule: N-terminal domain of Drosophila virilis CTCF (1-144 aa), without Thioredoxin (domain or fragment)

stoichiometry N [2]: 2
Molecule: Thioredoxin-tagged N-terminal domain of Drosophila virilis CTCF (1-144 aa) (domain or fragment)
